Laboratory results taken from a protein production outcome set (Wang et al. 2014).

Assay: label from the status in PepcDB records

| Sequence | protein production |
| --- | --- |
| MPFSKNLENLTAPFKRIKNRSLVLALGFLILTFCLLLFLILSDVSRLISGKDFFYVIQSHPKQTLIEDENYFYANKGLYKTNKEAFLRVYKIPESMPIERRENLSKVSKIFLALLFFISSMLFGIFWRLPKRLDTKMSLESAHKNELENAFQRYDALGVRFEDIAGVDEVKEELLEVIDYLKNPKKYQDLGIFLPKGVLLIGPPGVGKTMIAKALASEARVPFFYESGSAFSQIYVGAGAKKVHELFMHAKRHAPSIIFIDEIDALGKARGGHRSDEREATLNQLLTEMDGFLQNDEVVVIGATNQMEVMDEALLRSKRFDRRIFISLPDLLERQSILEKLLENKKHALNYLKIAKICVGFSGAMLATLINESALNALKHQRTEIAESDILEVKDKIAYGKKKPQTLDENQKELVALYQSAKALSAYWLEIEFDKAPILGEFIAFNENKIHSESEIKNYIKVYLSGTIILELLYKERYSLSKQDLQKAKFLNEFMASELLLAPTKESLSVLYEEQLEFLKPQIAACKRLSVLLLEQEYLEHSNLYDLLNG | failed |
| MTPGTGSALGLLAAAVDAKAVAEIGTGCGVSGIHLLHGMRPDGVLTTVDPEPEHQQFARHAFRAAGFASNRARFIPGRALDVLPRLADAGYDLVFCDGDRLEYLDYLAESLRLLRPGGLVAFEGVFGAGRTIDSGPQPTEVLRVRELLRAVRESQELVPSLLPVGDGLLCAVKR | failed |
| MMPLILSNTGEEVVIKKISGSDKTRTFLNSIGFVVGTNVKIVSKIDGNLIIDVKDTRVALDKKMASRIIILEHHHHHH | failed |
| MNLIINDKTASSSVGQTIGKAARLNHAHVGYVCGGHGLCQACYITVQEGADCLAPLTDVEKAFLSPRQIAAGGRMACQATIAKEGTVKVLSRPEEVRRMVFSNPFQLIGYAADMGKDTAQQIVPGVQNLIGRIQRGEMGGKDALGDMIESIQGAAGLVVEAIQQGPMALPIPFKEQIADLISKLPLPQIQLPSISLPQLPSISFPQLPFSLPKLPFSLPFLPQQPQATASLEKVTITVQPPAKD | failed |
| MTSGSRWDGIIPHPGILAFAMALYLLGFVLDASGRPLAYGFLTGDMVVHFFTFPGLREQFIDYLLATAFWIFISNITQVTVFIFSLATFYPVLKIFVLAGALLHNLLVGWGVRGLLIYAGTLHLHLEVTGCLLSLQAALVFVRSLLGTIQHRSRGPLVTALRENLAYLIPLIILLFAIAAILEVFWSTWWVYNLTHGPVSWRYFYTHVFSVEL | failed |
| MLTPRFDIQPAVSVILPTFDRAPLLASAIESVVAQNFAEWELIVVDDGSSDETFEIVDGYLNQHANIRYMKHRNRKAALSRNAGIQAAFGRYITFLDSDDLYLPEHLESRLHLLESMPEVRLISGGFVCEGDPWVRDRDDPEKLIHVSECIAGATMFGRRELFLDIGGFRALDYAEDTDLWERAARSHKVLKIDQPVSYIYRRSPGSITRTYKPAKPLEHHHHHH | not failed |
| MESQLTLITLTLVIATIFGVALSRFRISPIPAYLIAGLLGKSFGLDYSSDLFNFLSTLAINLVSFNVGISLDIRELKNILSKATIIAITEYIVGFTIISIISLIIGLPFYDTFILTIISVTTSTTITYKLIQNKIDDKQSGLILAVLSLEDVITFIALGVILSSNSNIVEIIPTSLASLGLGYLVSRTIINRSINTSEESVIISSIASVLSFSLLGQIFDIPSTLANFLLGLGASYALKDTKKVSRILSPLIDFSLIFFFFSAGSYLNLSLSSLYVLVPISLIMTLVKYLSFSTSYWLTGSNFLVAFRSGIYMTSLSELGIIVALNAFQQGIITSLVYNLSAFLVMMSSTITSITVPRERRIIGLISKTYEKLRIDRIDGALQRITRVVKLNRNTTSNFILRFILIGLITIFSASYLLIFLVSFARFFIYIAPLISVLVPFLLALLVIEETRRLSNLGQKRINEIILWIIYVFITINFEIFIVRIISELNYYVIYLGILVSIIVIVIMYQRLNTFIKELDKSL | failed |
| MGMLGLDLLKEVPGLLEEIKALPLRLDEERFRFWLQQDYPFVEALYRYQVGLLLEAPQAHRAPLVQALMATVEELDWLLLQGASPSAPVHPVRAGYIALLEEMGRLPYAYRVVFFYFLNGLFLEAWAHHVPEEGPWAELSQHWFAPEFQAVLYDLEVLARGLWEDLDPEVVRTYLRRILEAEKATWSLLL | not failed |
| MKPALRRGLVWIGCTASSWGGLVLPSAWSPAAIAQTRAPTNQTGMQLQINGRAIAGQWVVEPASQGSFIWIEEVALRNGLGLELLPGLSTTRQAIRWFSDGRVAEGVEQVPARRQNGRRFLEVSSLARRSGWSLAVLADQLVIQLPAATLRNLRDGQQGANRRLVLDFDRPTPWEWDAIGQQLRFDGSVPAQLVPSLQRYGIQAEQQGDRTSLRLPAGLGVRVSSLGSPDRIFIDLPTTTGLLSPPAGLGSNPAPLTPAPPDLAGTQLQQRQVTVDGATFPVFVIQLDLRQPNVRLAPIWAGNGSLEGTQVLQAVARDRGAAIAINAGFFNRNNRLPLGAIRRDNIWYSGPILNRGAMAWNDQGEVLIDRLGLQETLQLSSGTRIPLVALNSGYVRAGAARYTEAWGNSYQTILDNEVVVTVQGDRVVSQSQADKAGSNRFTIPRNGYLIVLRSANSLRTSLVNGTTIQVLQQAQPSQFDRFPHALGGGPLLVKSGRVVVNPQAEGFSRAFEIEAAPRSAIGLMPDGRLVLVAAHEQNQGQGPTLPQMAAIMQQLGVVDALNFDGGSSTSLIVNGQLVNRARGSAARVHNGLGVFLGPTTPASLR | failed |
| MLTNPTYGLTLHAQGPVPAEVFPLPTPPRSSRVPASTNRGGPPPQRGGPRPSGRPPRPPVRRKKPRWAMRAVTALSVVVLASAGIGHAVLSSLDSDISRFDAFKDMKNRPRAGDGMNVLMVGTDGRDEITEEERRKYRLGGAPCHCTDTIMIVHISEDRERASVVSLPRDSYAETPGHTDRTTGEHHKGHPIKLNAAYAEGGPQLTIRTVENMTRVKIDHYLEVDFTSFMKTVDVLGGVRICTVQPLKDSYTGLDLPAGSHTLMGGQALQYVRARHLDGASDLSRMKRQQRFLAALIDRATSSGILLNPLKFRDVTRAVLGSVRADQGFGTDELLTLGRAMRNFSPSSSEFTTVPIGQMGYAVKGVGSTLKWDPAKSERLFDALREDEPLAAPKPKGPAPVRVPVDPKQIRVQVENGTRTSGLGKRVDDALAATGFRTTRAPRNAEDRAVGRTVVAYDPRWDQSAKSLAAALPGSELKPVKGQGATLKVIAGADFEKVAKVRPADPPQESGTVVRGDEVVCGKE | failed |
| MSDQVPKPHRHHIWRITRRTLSKSWDDSIFSESAQAAFWSALSLPPLLLGMLGSLAYVAPLFGPDTLPAIEKSALSTAHSFFSPSVVNEIIEPTIGDITNNARGEVASLGFLISLWAGSSAISAFVDAVVEAHDQTPLRHPVRQRFFALFLYVVMLVFLVATAPVMVVGPRKVSEHIPESLANLLRYGYYPALILGLTVGVILLYRVALPVPLPTHRLVLGAVLAIAVFLIATLGLRVYLAWITRTGYTYGALATPIAFLLFAFFGGFAIMLGAELNAAVQEEWPAPATHAHRLGNWLKARIGVGTTTYSSTAQHSAVAAEPPS | failed |
| QESVEDSLATVKVVLIPVGQEIVIPFKVDTILKYLKDHFSHLLGIPHSVLQIRYSGKILKNNETLVQHGVKPQEIVQVEIFSTNPDLYPVRRIDGLTDVSQIITV | not failed |
| MWVDGMAKVVEVGRICVKTRGREAGRKCVIVDIIDENFVLVTGPKSLTGVRRRRVNIDHIEILDKKVDIQKGASDEEVLKALEEAGLADFMREPVRIARITPFTLLEHHHHHH | not failed |
| RNTNPGIKCFAVRSLGWVEMTEEELAPGRSSVAVNNCIRQLSYHKNNLHDPMSGGWGEG | failed |
| MIHFSINKNLFLQALNTTKRAISSKNAIPILSTVKIDVTNEGITLIGSNGQISIENFISQKNEDAGLLITSLGSILLEASFFINVVSSLPDVTLDFKEIEQNQIVLTSGKSEITLKGKDSEQYPRIQEISASTPLILETKLLKKIINETAFAASTQESRPILTGVHFVLSQHKELKTVATDSHRLSQKKLTLEKNSDDFDVVIPSRSLREFSAVFTDDIETVEIFFANNQILFRSENISFYTRLLEGNYPDTDRLIPTDFNTTITFNVVNLRQSMERARLLSSATQNGTVKLEIKDGVVSAHVHSPEVGKVNEEIDTDQVTGEDLTISFNPTYLIDSLKALNSEKVTISFISAVRPFTLVPADTDEDFMQLITPVRTN | not failed |
